{"source": "paper PMC5712780", "about": "“Ymr210wp leads to the accumulation of phospholipids and steryl esters in yeast” (Bioinformation, 2017)", "assay_in_all_cases": "p-nitrophenyl ester hydrolysis assay, Michaelis-Menten fit", "format_in_all_cases": "biochemical, Saccharomyces cerevisiae", "key": {"[1]": {"substrate": "CC(=O)Oc1ccc([N+](=O)[O-])cc1", "conditions": "optimum pH 7.5 and 30°C (kinetic conditions not stated); text b29 prints error ±2.95; pH 7.5; 30.0 °C", "description": "(§1) p-nitrophenyl ester hydrolysis assay, Michaelis-Menten fit on Ymr210wp"}, "[2]": {"substrate": "CCCCCCCCCCCCCCCC(=O)Oc1ccc([N+](=O)[O-])cc1", "conditions": "optimum pH 8.5 and 45°C (kinetic conditions not stated); pH 8.5; 45.0 °C", "description": "as §1"}, "[3]": {"substrate": "CCCC(=O)Oc1ccc([N+](=O)[O-])cc1", "conditions": "optimum pH 7.5 and 30°C (kinetic conditions not stated); pH 7.5; 30.0 °C", "description": "as §1"}}, "data": [{"protein": "Ymr210wp (Saccharomyces cerevisiae S288C) (protein, YMR210w cloned in pYES2/CT, His-tagged, expressed in S. cerevisiae BY4741, Ni-NTA purified) MRLKELLPNFLIVHQEVPEDPIAFKSTDKRENENKEITIPELIDTKVPELADGATDTLYGLLVNGHLQTAYGSFRHFDNIYKVQYKRMIIKYPHGGEGTVDFAVNGRSTKRRKVEKEYVPTSQPVFNGNLKRRYSYYSPDDPKLNSDDAKPMLIILHGLTGGSRESYVRAIVHEITTKYDFEACVFNARGCCYSAITTPLLYNGGWTNDIRYCVNDLRKRFPNRKFYMMGFSLGASIMTNYLGEESDRTKIECAISVSNPFDLYNSAYFINSTPMGSRFYSPALGHNLLRMVRNHLSTLEENPDFKDVIEKHLKKIRTVRQFDNLLTGPMFGYKNAEEYYKNASSYKRIPGIRTPFIALHAQDDPIVGGDLPIDQIKSNPYTLLLETSTGGHVGWFKDRSGRRWYAEPLCRFLKIFHDEITVKGLKPDLENVQLPDPNCEPIATTFRAN", "values": [{"measurement": "Km", "setting": "[1]", "result": "11.51 ± 1.09", "unit": "mM"}, {"measurement": "Km", "setting": "[2]", "result": "13.19 ± 1.03", "unit": "mM"}, {"measurement": "Km", "setting": "[3]", "result": "7.28 ± 1.61", "unit": "mM"}]}]}
